Assay results from publication PMC9896144, “A “grappling hook” interaction connects self-assembly and chaperone activity of Nucleophosmin 1” (PNAS Nexus, 2023).
Values joined by “and” are separate entries in the source; they are usually repeats but may differ in a detail not shown here. Equal values may be shown once. One block for each molecule: values may come before it.

B1: NPM1_(120), the N-terminal pentamerization domain (NTD) of NPM1 (domain or fragment, human, UniProt P06748 1-120, looked up)
chain: MEDSMDMDMSPLRPQNYLFGCELKADKDYHFKVDNDENEHQLSLRTVSLGAGAKDELHIVEAEAMNYEGSPIKVTLATLKMSVQPTVSLGGFEITPPVVLRLKCGSGPVHISGQHLVAVE
notes: Nucleophosmin 1, human, NTD with the A1 tract, residues 1 to 120; exact construct and tags are in the supplementary methods; also called NPM120; isolated NTD; source: produced by the authors
B2: rpL5_(21-37), residues 21 to 37 of ribosomal protein L5 (peptide, UniProt P46777 21-37, looked up)
peptide: RRRREGKTDYYARKRLV
notes: ribosomal protein L5 (rpL5), residues 21 to 37, with two basic motifs; printed mass 2.2 kDa; also called rpL5 peptide; rpL5_(12-37)
B3: NPM1AML, NPM1 variant with an AML mutation at the C-terminus (natural protein, human, UniProt P06748 1-294, looked up)
chain: MEDSMDMDMSPLRPQNYLFGCELKADKDYHFKVDNDENEHQLSLRTVSLGAGAKDELHIVEAEAMNYEGSPIKVTLATLKMSVQPTVSLGGFEITPPVVLRLKCGSGPVHISGQHLVAVEEDAESEDEEEEDVKLLSISGKRSAPGGGSKVPQKKVKLAADEDDDDDDEEDDDEDDDDDDFDDEEAEEKAPVKKSIRDTPAKNAQKSNQNGKDSKPSSTPRSKGQESFKKQEKTPKTPKGPSSVEDIKAKMQASIEKGGSLPKVEAKFINYVKNCFRMTDQEAIQDLCLAVEEVSLRK
notes: Compared directly with FL NPM1, so most likely the whole protein with the changed C-terminus; also called AML variant; source: purified by the authors
B4: NPM1_(188), the NTD and the acidic regions of the IDR of NPM1 (domain or fragment, human, UniProt P06748 1-188, looked up)
chain: MEDSMDMDMSPLRPQNYLFGCELKADKDYHFKVDNDENEHQLSLRTVSLGAGAKDELHIVEAEAMNYEGSPIKVTLATLKMSVQPTVSLGGFEITPPVVLRLKCGSGPVHISGQHLVAVEEDAESEDEEEEDVKLLSISGKRSAPGGGSKVPQKKVKLAADEDDDDDDEEDDDEDDDDDDFDDEEAEE
notes: Nucleophosmin 1, human, NTD and acidic tracts A1-3, C-terminally truncated at residue 188; exact construct and tags are in the supplementary methods; Mostly pentameric; also called NPM188; source: produced by the authors

Key:
[1] = target: NPM1_(ΔIDR), NPM1 variant in which NTD and CTD are linked without the IDR (human) (UniProt P06748); test: native MS; each NPM1 variant alone; nESI with collision-induced dissociation, collision voltages 25 to 75 V
[2] = target: the molecule itself; test: native MS; NPM1_120 or FL NPM1 in the presence of the rpL5_21-37 peptide; collisional activation
[3] = target: the molecule itself; test: native MS; each NPM1 variant alone; nESI with collision-induced dissociation, collision voltages 25 to 75 V
[4] = target: T1, Full-length (FL) Nucleophosmin 1 (human, UniProt P06748 1-294); test: native MS; NPM1_120 or FL NPM1 in the presence of the rpL5_21-37 peptide; collisional activation; details: both partners purified
T1 construct: Forms pentamers that assemble into large oligomers without defined stoichiometry; PDB 8AS5 models only the N-terminal core; also called NPM1; FL NPM1; source: produced by the authors

[5] = target: B1; test: as above; details: both partners purified

- stoichiometry N [1]: 5 and 10
Molecule: NPM1_(ΔIDR), NPM1 variant in which NTD and CTD are linked without the IDR (from UniProt P06748 1-120; P06748 240-294)

Molecule: B1
- stoichiometry N [2]: ≥ 25 subunits
- stoichiometry N [3]: 10

Molecule: B2
- binding result [4]: binds
- binding result [5]: binds

Molecule: B3
- binding result [3]: binds

Molecule: B4
- stoichiometry N [3]: 5 and 10
